Data: patent US11648290B2, “Cartilage-homing peptides” (FRED HUTCHINSON CANCER CENTER, priority 2015, dated 2023)

What was measured:
trypsin = molecular target: T1, trypsin (Bos taurus, UniProt P00760); test: Peptide resistance to trypsin digestion (RP-HPLC); format: in vitro ADME
T1 construct: gene PRSS1
T1 sequence (P00760 24-246): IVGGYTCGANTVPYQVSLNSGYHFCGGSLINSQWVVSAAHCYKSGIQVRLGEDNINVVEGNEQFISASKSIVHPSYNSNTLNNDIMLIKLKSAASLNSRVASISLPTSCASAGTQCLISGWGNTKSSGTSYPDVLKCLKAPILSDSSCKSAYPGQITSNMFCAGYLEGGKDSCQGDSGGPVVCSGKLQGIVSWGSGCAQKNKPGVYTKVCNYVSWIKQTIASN
Method: Various peptides were suspended in 500 μl of ddH2O at a stock concentration of 2 mg/ml. Reactions were prepared with 12.5 μg peptide and 5 μg trypsin in 25 mM Tris/75 mM NaCl buffer (pH 7.0) and incubated for 30 minutes at 37.5° C. Reactions were quenched with 5 μg of soybean trypsin inhibitor and 10 mM dithiothreitol (DTT). Reversed phase HPLC (RP-HPLC) was run on samples using an Agilent 1260 HPLC equipped with a C-18 Poroshell 120B column. Sample were analyzed by a gradient method with a mobile phase of Solvent A (water with 0.1% TFA) and Solvent B (acetonitrile with 0.1% TFA). Solvent B was ramped up from 5%-45% of the mobile phase over a period of 10 minutes.

[1] = Temperature stability of peptides (RP-HPLC); format: physicochemical
Method: This example illustrates peptide stability at high temperatures. Peptides were first suspended in 500 μl of ddH2O to a stock concentration of 2 mg/ml. Reactions were prepared by adding 6.25 μl of peptide from the stock solution with 95 μl ddH2O and incubated at room temperature, 70° C., or 100° C. for one hour in a Thermocycler. RP-HPLC was then run on samples using an Agilent 1260 HPLC equipped with a C-18 Poroshell 120B column. Sample were analyzed by a gradient method with a mobile phase of Solvent A (water with 0.1% TFA) and Solvent B (acetonitrile with 0.1% TFA). Solvent B was ramped up from 5%-45% of the mobile phase over a period of 10 minutes.
Peptides of SEQ ID NO: 28 and SEQ ID NO: 483 were analyzed by HPLC after incubation at room temperature (25° C.), 70° C., or 100° C. for one hour.

With “GSISIGIKCSPSIDLCEGQCRIRKYFTGYCSGDTCHCSG [SEQ ID NO: 483]” the “Resistance to degradation by trypsin” value (trypsin; 12.5 ug peptide, 5 ug trypsin, pH 7.0, 30 minutes at 37.5 C) was “partially resistant to degradation by trypsin”, the “Resistance to reduction by DTT (FIG. 54)” value (trypsin; 10 mM DTT) was “partially resistant to reduction by DTT” and the “Stability after heat incubation (HPLC)” value ([1]; 70 C for 1 hour) was “resistant to heat-induced degradation”. For the same sequence, the “Stability after heat incubation (HPLC)” value ([1]; 100 C for 1 hour) was “underwent various degrees of degradation”.
